Laboratory results reported in article PMC6620040, “Structure of the DNA-Bound Spacer Capture Complex of a Type II CRISPR-Cas System” (Molecular Cell, 2019).

B1: Cas1 protein of the CRISPR3-Cas system from S. thermophilus DGCC7710, bearing a StrepII tag (natural protein, Streptococcus thermophilus DGCC7710)
chain: MAGWRTVVVNIHSKLSYKNNHLIFRNSYKTEMIHLSEIDILLLETTDIVLTTMLVKRLVDENILVIFCDDKRLPTAFLTPYYARHDSSLQIARQIAWKENVKCEVWTAIIAQKILNQSYYLGECSFFEKSQSIMELYHGLERFDPSNREGHSARIYFNTLFGNDFTRESDNDINAALDYGYTLLLSMFAREVVVCGCMTQIGLKHANQFNQFNLASDIMEPFRPIIDRIVYQNRHNNFVKIKKELFSIFSETYLYNGKEMYLSNIVSDYTKKVIKALNQLGEEIPEFRI
notes: Cas1 of the type II-A CRISPR3-Cas system, Streptococcus thermophilus DGCC7710; cloned into pETDUET-1 (pCas1Strep); Forms dimers with two conformations (Cas1A, Cas1B) in the structures; also called StCas1; Strep-tagged Cas1; source: E. coli BL21 (DE3), co-expressed with the rest of the CRISPR3-Cas locus, in lysate; purified as a complex (Strep-Trap HP, Superdex S200) for cryo-EM; not shown: …
B2: Csn2 protein of the CRISPR3-Cas system from S. thermophilus DGCC7710 (natural protein, Streptococcus thermophilus DGCC7710)
chain: MKINFSLLDEPMEVNLGTVLVIEDVSVFAQLVKEFYQYDEQSNLTIFDSKIRSIRSSELLLITDILGYDINTSQVLKLLHTDIVSQLNDKPEVRSEIDSLVSLITDIIMAECIENELDIEYDEITLLELIKALGVRIETKSCTVFEKIFEILQIFKYLVKKRILVFVNSLSYFSKDEIYQILEYTKLSQADVLFLEPRQIEGIQQFILDKDYILMPYNN
notes: Csn2 of the type II-A CRISPR3-Cas system, Streptococcus thermophilus DGCC7710; expressed from the CRISPR3 locus plasmid; Tetramer (dimer of dimers, conformations Csn2A and Csn2B) in the structures; one Ca2+ per chain modelled; also called StCsn2; Csn2A; source: E. coli BL21 (DE3), expressed from the CRISPR3 locus plasmid (pCas1- and derivatives), in lysate; purified as a complex (Strep-Trap HP, …)
B3: Cas2 protein of the CRISPR3-Cas system from S. thermophilus DGCC7710 (natural protein, Streptococcus thermophilus DGCC7710)
chain: MSYRYMRMILMFDMPTDTAEERKAYRKFRKFLLSEGFIMHQFSVYSKLLLNHTANTAMVGRLKANNPKKGNITILTVTEKQFARMIYLYGDKNTSIANSEERLVFLGDNYCDED
notes: Cas2 of the type II-A CRISPR3-Cas system, Streptococcus thermophilus DGCC7710; expressed from the CRISPR3 locus plasmid; source: E. coli BL21 (DE3), expressed from the CRISPR3 locus plasmid (pCas1- and derivatives), in lysate; purified as a complex (Strep-Trap HP, Superdex S200) for cryo-EM

Experiments:
[1] = target: the molecule itself; assay: cryo-EM structure; Strep-Trap- and SEC-purified Cas9-Cas1-Cas2-Csn2 sample after DNase I treatment and gel filtration (25 mM Tris pH 7.5, 150 mM NaCl, 1 mM TCEP), graphene oxide coated grids; monomer Cas1_(8)-Cas2_(4)-Csn2_(8) at 3.2 Å (D2), dimer Cas1_(24)-Cas2_(12)-Csn2_(16) at 7.2 Å (D2), filament unit at 7.7 Å (D2); duplex DNA in the central channel
[2] = target: B1; assay: pull-down; StrepII-tagged Cas1 co-expressed in E. coli with the CRISPR3-Cas locus (all four proteins; also the variants lacking Cas9, the CRISPR array or tracrRNA); StrepTrap column, then size-exclusion chromatography (Superdex S200), SDS-PAGE; 10 mM Tris-HCl pH 7.5, 300 mM KCl, 1 mM EDTA, 1 mM DTT; conditions: partners not purified

binding result [2]	Binder	stoichiometry N [1]
	B1	2
	B2	4
binds	B3	2
